As usually defined, the Km is the concentration of substrate that gives half-maximal velocity. For orientation: kcat means the number of substrate molecules converted per active site and unit of time at saturation.

Series [1] concerns the target T1, Boc-Glu(OBzl)-Ala-Arg-MCA.
T1 chain: EAR

Series [2] has as its target D4K-cleavage site-containing control protein (Novagen).
The target of series [3] is T2, Gly-Asp-Asp-Asp-Asp-Lys-β-naphthylamide.
T2 chain: GDDDDK

The target in series [4] is Human plasma fibronectin, P02751.
Chain of Human plasma fibronectin, P02751 (P02751 other isoform, or with tags, fused parts or gaps): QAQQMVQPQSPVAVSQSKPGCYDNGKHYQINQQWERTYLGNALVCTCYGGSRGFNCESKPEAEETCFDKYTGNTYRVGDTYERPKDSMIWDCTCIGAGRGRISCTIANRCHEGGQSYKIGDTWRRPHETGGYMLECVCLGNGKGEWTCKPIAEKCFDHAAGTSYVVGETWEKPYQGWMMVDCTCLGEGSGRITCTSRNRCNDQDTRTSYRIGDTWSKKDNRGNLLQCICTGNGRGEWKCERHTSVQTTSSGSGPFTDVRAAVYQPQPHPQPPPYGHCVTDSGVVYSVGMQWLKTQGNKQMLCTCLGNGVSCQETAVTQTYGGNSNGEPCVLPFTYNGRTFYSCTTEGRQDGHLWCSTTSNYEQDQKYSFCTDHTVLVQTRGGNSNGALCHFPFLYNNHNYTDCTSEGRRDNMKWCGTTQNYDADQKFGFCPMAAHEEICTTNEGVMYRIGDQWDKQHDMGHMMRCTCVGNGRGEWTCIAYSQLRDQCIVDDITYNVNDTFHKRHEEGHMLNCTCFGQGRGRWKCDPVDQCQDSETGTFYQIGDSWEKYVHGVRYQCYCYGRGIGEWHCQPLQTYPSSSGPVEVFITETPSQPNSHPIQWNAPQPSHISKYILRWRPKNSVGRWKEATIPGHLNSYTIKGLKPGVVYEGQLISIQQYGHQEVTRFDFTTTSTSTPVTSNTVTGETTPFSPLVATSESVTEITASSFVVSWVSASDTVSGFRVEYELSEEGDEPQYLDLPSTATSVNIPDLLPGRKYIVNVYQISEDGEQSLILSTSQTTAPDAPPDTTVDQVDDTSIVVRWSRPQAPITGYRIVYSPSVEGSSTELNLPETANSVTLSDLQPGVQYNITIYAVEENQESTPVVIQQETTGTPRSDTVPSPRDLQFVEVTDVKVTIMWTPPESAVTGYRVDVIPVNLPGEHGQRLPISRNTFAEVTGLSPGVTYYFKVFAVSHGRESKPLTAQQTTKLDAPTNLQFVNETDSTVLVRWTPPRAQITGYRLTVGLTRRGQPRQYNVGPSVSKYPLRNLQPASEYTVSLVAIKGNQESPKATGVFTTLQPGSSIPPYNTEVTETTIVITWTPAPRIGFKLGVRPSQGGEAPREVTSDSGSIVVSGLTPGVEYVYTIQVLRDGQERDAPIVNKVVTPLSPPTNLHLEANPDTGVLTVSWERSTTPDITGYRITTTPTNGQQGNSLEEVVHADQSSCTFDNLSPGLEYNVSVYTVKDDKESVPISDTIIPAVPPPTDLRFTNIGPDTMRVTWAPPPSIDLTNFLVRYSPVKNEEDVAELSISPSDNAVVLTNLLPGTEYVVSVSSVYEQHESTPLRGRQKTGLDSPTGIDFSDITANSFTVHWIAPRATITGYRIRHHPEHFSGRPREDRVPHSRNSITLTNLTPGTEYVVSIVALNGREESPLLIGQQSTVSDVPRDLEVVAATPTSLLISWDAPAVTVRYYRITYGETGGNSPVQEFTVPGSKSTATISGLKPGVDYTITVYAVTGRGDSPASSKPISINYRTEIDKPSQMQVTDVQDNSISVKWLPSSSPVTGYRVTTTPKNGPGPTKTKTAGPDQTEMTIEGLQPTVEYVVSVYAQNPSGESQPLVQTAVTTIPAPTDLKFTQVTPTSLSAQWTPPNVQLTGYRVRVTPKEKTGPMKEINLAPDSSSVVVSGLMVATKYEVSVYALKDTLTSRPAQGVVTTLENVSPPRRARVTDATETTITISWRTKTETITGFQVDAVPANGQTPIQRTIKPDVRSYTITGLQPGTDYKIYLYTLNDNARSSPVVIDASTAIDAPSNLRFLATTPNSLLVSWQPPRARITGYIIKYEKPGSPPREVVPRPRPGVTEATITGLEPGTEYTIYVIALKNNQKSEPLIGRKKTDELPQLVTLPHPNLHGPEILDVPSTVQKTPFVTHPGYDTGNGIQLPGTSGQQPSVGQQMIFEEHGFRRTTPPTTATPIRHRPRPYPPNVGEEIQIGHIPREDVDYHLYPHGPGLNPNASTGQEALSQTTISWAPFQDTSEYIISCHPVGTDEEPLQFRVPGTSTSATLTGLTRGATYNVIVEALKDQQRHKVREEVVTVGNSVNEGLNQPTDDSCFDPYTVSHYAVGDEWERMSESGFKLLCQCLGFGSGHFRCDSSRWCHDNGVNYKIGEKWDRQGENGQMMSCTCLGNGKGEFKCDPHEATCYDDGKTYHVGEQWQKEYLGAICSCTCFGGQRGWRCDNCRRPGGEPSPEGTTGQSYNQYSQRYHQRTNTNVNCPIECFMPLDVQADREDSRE
The target of the next series is T3, Pro-Phe-Arg-MCA.
T3 chain: PFR

The next series addresses T4, Z-Phe-Arg-MCA.
T4 chain: FR

Series [5] deals with human single-chain tPA fusion protein with N-terminal His-tag/EP-cleavage site, P00750.
Chain of human single-chain tPA fusion protein with N-terminal His-tag/EP-cleavage site, P00750 (P00750 whole entry, looked up, the tested form may be a part): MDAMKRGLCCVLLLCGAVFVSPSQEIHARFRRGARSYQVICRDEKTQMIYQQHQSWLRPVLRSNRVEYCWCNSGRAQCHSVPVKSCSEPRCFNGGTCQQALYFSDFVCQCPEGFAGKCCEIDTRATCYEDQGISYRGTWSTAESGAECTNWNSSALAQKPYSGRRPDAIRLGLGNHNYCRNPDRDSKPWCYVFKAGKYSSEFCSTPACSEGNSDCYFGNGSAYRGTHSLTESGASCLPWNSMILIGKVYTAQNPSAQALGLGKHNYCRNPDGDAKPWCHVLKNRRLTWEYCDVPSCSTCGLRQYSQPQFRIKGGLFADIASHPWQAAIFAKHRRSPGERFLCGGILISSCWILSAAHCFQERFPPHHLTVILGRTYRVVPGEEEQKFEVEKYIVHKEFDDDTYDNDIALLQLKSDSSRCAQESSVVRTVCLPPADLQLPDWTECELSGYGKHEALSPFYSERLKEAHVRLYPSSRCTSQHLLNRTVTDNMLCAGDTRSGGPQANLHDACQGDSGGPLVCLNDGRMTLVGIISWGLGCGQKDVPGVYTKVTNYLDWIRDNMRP
The target in series [6] is recombinant fusion protein of Medaka gelatinase A.
Series [7] addresses recombinant fusion protein of Medaka trypsinogen.
For series [8], the target named is T5, recombinant fusion protein of human kallikrein 8 (hK8), O60259.
T5 sequence (O60259 whole entry, looked up): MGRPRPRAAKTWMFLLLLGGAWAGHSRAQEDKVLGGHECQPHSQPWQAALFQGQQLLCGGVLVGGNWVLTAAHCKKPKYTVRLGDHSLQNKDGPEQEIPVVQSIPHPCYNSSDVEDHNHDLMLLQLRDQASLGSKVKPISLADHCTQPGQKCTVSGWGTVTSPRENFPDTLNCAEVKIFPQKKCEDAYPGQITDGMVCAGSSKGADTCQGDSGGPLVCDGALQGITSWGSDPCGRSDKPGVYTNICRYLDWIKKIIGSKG

A further series deals with T6, human fibrinogen, P02671.
T6 chain 1: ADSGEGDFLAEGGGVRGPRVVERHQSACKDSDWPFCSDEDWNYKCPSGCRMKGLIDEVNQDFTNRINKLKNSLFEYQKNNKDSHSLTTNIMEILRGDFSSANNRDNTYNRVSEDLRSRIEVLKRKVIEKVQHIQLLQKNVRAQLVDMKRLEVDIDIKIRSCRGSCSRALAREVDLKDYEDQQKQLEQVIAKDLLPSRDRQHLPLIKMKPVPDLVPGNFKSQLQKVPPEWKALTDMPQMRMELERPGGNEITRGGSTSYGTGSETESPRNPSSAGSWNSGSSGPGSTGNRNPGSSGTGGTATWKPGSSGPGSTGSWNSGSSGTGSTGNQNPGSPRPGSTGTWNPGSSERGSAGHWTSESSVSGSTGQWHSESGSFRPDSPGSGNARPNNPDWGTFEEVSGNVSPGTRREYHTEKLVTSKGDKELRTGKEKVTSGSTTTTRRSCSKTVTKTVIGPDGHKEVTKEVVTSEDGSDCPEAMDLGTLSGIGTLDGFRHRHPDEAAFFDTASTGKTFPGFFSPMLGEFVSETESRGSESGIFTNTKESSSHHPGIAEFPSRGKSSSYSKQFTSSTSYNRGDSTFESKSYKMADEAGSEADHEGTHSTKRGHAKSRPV
T6 chain 2: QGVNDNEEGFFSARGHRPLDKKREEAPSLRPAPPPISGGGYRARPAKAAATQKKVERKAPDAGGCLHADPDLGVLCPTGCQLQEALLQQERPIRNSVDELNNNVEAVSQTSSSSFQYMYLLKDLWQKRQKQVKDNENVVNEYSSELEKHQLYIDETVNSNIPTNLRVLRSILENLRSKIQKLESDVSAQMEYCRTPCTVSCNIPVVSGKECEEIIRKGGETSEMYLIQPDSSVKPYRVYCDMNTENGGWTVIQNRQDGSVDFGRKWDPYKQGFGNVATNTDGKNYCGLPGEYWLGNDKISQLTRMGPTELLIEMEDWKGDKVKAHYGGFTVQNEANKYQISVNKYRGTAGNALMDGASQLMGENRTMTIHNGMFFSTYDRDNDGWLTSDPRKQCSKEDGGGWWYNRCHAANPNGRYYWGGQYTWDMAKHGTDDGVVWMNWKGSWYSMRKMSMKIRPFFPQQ
T6 chain 3: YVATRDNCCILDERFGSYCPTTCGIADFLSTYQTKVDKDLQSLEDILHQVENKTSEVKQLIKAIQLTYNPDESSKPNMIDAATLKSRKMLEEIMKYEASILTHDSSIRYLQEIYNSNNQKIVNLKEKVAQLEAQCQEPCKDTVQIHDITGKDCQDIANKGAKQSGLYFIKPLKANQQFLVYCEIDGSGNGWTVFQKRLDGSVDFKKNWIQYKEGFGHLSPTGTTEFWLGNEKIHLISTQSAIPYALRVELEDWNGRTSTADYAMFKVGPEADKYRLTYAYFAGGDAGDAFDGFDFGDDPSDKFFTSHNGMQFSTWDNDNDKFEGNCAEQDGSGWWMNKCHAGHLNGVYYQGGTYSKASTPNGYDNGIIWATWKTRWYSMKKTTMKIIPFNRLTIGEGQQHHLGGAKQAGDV

Series [9] addresses T7, human high-molecular-weight (HMW) kininogen, P01042.
T7 chain: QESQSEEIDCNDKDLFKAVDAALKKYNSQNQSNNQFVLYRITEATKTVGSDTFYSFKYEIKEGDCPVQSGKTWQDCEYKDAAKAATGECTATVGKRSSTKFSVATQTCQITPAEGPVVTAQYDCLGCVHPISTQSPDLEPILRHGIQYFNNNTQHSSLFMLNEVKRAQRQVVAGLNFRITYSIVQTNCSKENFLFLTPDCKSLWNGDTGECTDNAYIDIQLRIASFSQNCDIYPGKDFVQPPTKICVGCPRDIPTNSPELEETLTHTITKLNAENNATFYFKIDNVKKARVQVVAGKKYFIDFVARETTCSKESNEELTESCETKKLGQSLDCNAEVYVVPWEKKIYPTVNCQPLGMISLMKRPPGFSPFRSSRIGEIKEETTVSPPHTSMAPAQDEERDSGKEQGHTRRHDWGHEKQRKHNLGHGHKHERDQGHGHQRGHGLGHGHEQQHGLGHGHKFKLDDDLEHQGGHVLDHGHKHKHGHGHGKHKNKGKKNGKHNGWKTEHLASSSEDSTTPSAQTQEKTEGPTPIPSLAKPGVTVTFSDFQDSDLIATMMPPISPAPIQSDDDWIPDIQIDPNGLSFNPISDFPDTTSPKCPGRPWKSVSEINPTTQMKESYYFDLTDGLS

B1: Medaka EP-1 serine protease domain (wild-type) (protein)
chain: VVGGVNAEKGAWPWMVSLHWRGRHGCGASLIGRDWLLTAAHCVYGKNTHLQYWSAVLGLHAQSSMNSQEVQIRQVDRIIINKNYNRRTKEADIAMMHLQQPVNFTEWVLPVCLASEDQHFPAGRRCFIAGWGRDAEGGSLPDILQEAEVPLVDQDECQRLLPEYTFTSSMLCAGYPEGGVDSCQGDSGGPLMCLEDARWTLIGVTSFGVGCGRPERPGAYARVSAFTSWIAETRRSSFSDLD
B1: the Km amounted to 200 µM in series [1], 700 µM in [3], 10000 µM with Pro-Phe-Arg-MCA and 100 µM with Z-Phe-Arg-MCA. Further, the amidolytic activity entry (in [1]; with Pro-Phe-Arg-MCA; with Z-Phe-Arg-MCA) was “much lower than those of the EP proteases of mammalian origin” throughout. Further, the kcat in [1] stood at 0.112 s⁻¹; in [3] it was 15.7 s⁻¹; with Pro-Phe-Arg-MCA, 2.33 s⁻¹; with Z-Phe-Arg-MCA, 0.0483 s⁻¹. Also, the kcat/Km (mM^-1 · min^-1) is 34 in series [1], 1300 in [3], 14 with Pro-Phe-Arg-MCA and 29 in the series with Z-Phe-Arg-MCA. Also, the “cleavage of the fusion protein (SDS-PAGE)” value is “the Medaka protease specifically cleaved the fusion protein to generate two polypeptides having expected molecular masses of 16- and 32-kDa” in [2]; “A 60-kDa fusion protein was converted by wild-type or mutant proteases to a 55-kDa protein” in series [6]; “Digestion with Medaka wild-type and mutant EP proteases generated 31.5-kDa active hK8 by cleaving the D4K sequence” in series [8]. Also, the cleavage rate result in series [3] was “cleaved GD4K-βNA at a rate comparable to those of the porcine and bovine enzymes”. Moreover, the “enzyme activity for GD4K-βNA” value in series [3] is “EP-1 was approximately three times more active than EP-2”. The “proteolytic activity (SDS-PAGE)” value (in series [4]; in the series with mouse laminin) was “Little or no hydrolysis was observed with the fish enzyme for the proteins” in each case. For the same protein, the “proteolytic activity (gelatin zymography)” value with gelatin was “Little or no hydrolysis was observed with the fish enzyme for the proteins”. The “cleavage of the fusion protein (SDS-PAGE/Western blot)” value in series [5] was “The protein samples treated with the Medaka wild-type or mutant EP proteases, but not with mammalian ones, showed two polypeptides (53- and 55-kDa)”. Further, the “conversion of trypsinogen to active trypsin” value in series [7] was “The trypsinogen was converted to active trypsin by EP-1 faster than by EP-2”.

B2: porcine EP serine protease domain (Ile800 to His1034) (protein)
chain: IVGGNDSREGAWPWVVALYYNGQLLCGASLVSRDWLVSAAHCVYGRNLEPSKWKAILGLHMTSNLTSPQIVTRLIDEIVINPHYNRRRKDSDIAMMHLEFKVNYTDYIQPICLPEENQVFPPGRICSIAGWGKVIYQGSPADILQEADVPLLSNEKCQQQMPEYNITENMMCAGYEEGGIDSCQGDSGGPLMCLENNRWLLAGVTSFGYQCALPNRPGVYARVPKFTEWIQSFLH
With B2, the Michaelis constant (Km) in series [1] turned out to be 300 µM; in series [3], 400 µM; with Pro-Phe-Arg-MCA it was 3900 µM; with Z-Phe-Arg-MCA it was 200 µM. In addition, the kcat in [1] worked out at 1.83 s⁻¹; in [3] it was 8.83 s⁻¹; with Pro-Phe-Arg-MCA, 5 s⁻¹; with Z-Phe-Arg-MCA, 0.917 s⁻¹. Further, the kcat/Km (mM^-1 · min^-1) in series [1] turned out to be 370; in series [3], 1300; with Pro-Phe-Arg-MCA, 77; with Z-Phe-Arg-MCA it was 280. The “cleavage of the fusion protein (SDS-PAGE)” value is on record as “the mammalian enzymes not only produced the two expected polypeptides but also further degraded the products” in series [2], “the fusion protein was extensively digested by mammalian EP serine proteases” in [6] and “the porcine protease extensively degraded the substrate” in series [8]. For the same protein, the “proteolytic activity (SDS-PAGE)” value (in [4]; in the series with mouse laminin) was “these substrates were detectably hydrolyzed by the mammalian proteases” in each case. Moreover, in the series with gelatin, the “proteolytic activity (gelatin zymography)” value was “these substrates were detectably hydrolyzed by the mammalian proteases”. For the same protein, the “nonspecific proteolytic activity (SDS-PAGE)” value is reported as “both of which were degraded noticeably by mammalian EP proteases” with human fibrinogen, P02671 and “both of which were degraded noticeably by mammalian EP proteases” in series [9]. Also, the “cleavage of the fusion protein (SDS-PAGE/Western blot)” value in series [5] is “but not with mammalian ones, showed two polypeptides (53- and 55-kDa)”.

The record behind these values is patent US20080213836.
